From patent publication US20210228738A1

How the values were obtained:
[1] = target: hamster IgG (pooled hamster plasma)
[2] = target: total IgG in human serum samples and pooled human plasma
[3] = target: rhesus macaque IgG (NHP plasma)

B1: immunoglobulin G-degrading enzyme of Streptococcus pyogenes (IdeS) (protein)
chain: DSFSANQEIRYSEVTPYHVTSVWTKGVTPPANFTQGEDVFHAPYVANQGWYDITKTFNGKDDLLCGAATAGNMLHWWFDQNKDQIKRYLEEHPEKQKINFNGEQMFDVKEAIDTKNHQLDSKLFEYFKEKAFPYLSTKHLGVFPDHVIDMFINGYRLSLTNHGPTPVKEGSKDPRGGIFDAVFTRGDQSKLLTSRHDFKEKNLKEISDLIKKELTEGKALGLSHTYANVRINHVINLWGADFDSNGNLKAIYVTDSDSNASIGMKKYFVGVNSAGKVAISAKEIKEDNIGAQVLGLFTLSTGQDSWNQTN
cleavage of IgG, non-reducing SDS-PAGE and Coomassie Blue staining [1]: IdeS was effective to cleave the IgG in the pooled hamster plasma and pooled human plasma in vitro | cleavage of IgG, non-reducing SDS-PAGE and Coomassie Blue staining [2]: IdeS was effective to cleave the IgG in the pooled hamster plasma and pooled human plasma in vitro | cleavage of IgG, non-reducing SDS-PAGE and Coomassie stain [2]: the lowest dose of IdeS cleaved all total IgG (~150 kD) to liberate the Fc fragment (~25 kD) | cleavage of IgG, non-reducing SDS-PAGE and Coomassie stain [3]: In the NHP samples, IgG was similarly cleaved in all NAb titer groups
